The target in the test is T1, MLO-Y4 cell surface proteins (Mus musculus, UniProt P52825).
T1 construct: endogenous in cells; host or cells: MLO-Y4
T1 sequence (P52825 26-658): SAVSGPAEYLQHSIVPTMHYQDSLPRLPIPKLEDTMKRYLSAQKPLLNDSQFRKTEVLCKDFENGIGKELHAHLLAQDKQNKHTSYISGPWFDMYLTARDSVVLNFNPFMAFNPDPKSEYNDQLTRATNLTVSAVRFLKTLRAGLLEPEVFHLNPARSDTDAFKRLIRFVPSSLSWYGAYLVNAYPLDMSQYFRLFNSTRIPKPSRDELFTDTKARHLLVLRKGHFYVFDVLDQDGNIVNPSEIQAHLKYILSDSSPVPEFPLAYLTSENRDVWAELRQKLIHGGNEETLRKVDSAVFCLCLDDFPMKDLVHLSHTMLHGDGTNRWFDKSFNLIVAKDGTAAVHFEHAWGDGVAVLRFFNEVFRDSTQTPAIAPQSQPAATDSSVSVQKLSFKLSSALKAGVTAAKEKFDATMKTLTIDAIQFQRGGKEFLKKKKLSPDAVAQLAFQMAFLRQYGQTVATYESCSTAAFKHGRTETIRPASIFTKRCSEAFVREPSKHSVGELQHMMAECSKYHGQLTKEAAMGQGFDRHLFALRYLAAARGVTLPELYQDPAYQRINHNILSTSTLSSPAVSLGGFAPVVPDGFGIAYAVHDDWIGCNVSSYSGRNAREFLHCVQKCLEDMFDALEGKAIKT
Description: Crosslinking/co-immunoprecipitation/mass spectrometry (TMT quantitative proteomics) to identify irisin receptors. Type of test: binding. To be noted: co-precipitated protein Cpt2 (CPT2_MOUSE). Put shortly: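 Mouse MLO-Y4 cells were switched to serum-free FreeStyle medium for 4 h, chilled, then exposed to 10 nM His-tagged irisin (or adipsin as control) for 20 min. Cells were crosslinked with 1.5 mM DTSSP (30 min, ice), and bound proteins were pulled down on Ni-NTA and eluted with 250 mM imidazole. Eluates were separated by SDS-PAGE, trypsin-digested in gel, TMT 6-plex labelled and quantified by MS3-based LC-MS/MS on an Orbitrap Fusion Lumos.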

Regarding adipsin, the TMT signal-to-noise ratio is listed as 177.54.
